Results reported in patent US20200102387A1 (CELGENE, published 2020).

How the values were obtained:
human SIRPα on cells [1] = molecular target: T1, human SIRPα on cells (human, UniProt P78324 31-504); experiment: cell-based or functional assay
human SIRPα on cells [2] = molecular target: T1, human SIRPα on cells; experiment: cell-based or functional assay; remark: listed apart in the source
[3] = molecular target: T2, rat SIRPα on CHO-K1 cells (rat, UniProt P97710 32-509); experiment: flow cytometry on Rat SIRPα-CHO-K1 cells
T2 construct: whole, on cells; also called rat SIRPα-CHO-K1
T2 sequence (looked up): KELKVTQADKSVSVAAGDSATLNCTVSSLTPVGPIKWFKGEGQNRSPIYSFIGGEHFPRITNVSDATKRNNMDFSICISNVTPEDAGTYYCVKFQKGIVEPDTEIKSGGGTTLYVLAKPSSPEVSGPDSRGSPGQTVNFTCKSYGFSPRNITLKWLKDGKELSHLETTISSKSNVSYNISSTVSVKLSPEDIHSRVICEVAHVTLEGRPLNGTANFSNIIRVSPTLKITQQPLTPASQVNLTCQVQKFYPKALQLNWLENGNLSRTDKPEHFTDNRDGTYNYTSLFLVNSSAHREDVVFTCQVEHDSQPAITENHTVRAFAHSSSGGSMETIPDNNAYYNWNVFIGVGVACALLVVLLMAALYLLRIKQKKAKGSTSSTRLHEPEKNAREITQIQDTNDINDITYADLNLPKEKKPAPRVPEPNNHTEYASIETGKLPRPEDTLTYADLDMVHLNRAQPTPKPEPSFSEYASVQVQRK

human SIRPα on cells [4] = molecular target: T1, human SIRPα on cells; experiment: flow cytometry, human SIRPα-CHO cells, anti-human IgG-AF647 detection
[5] = molecular target: T3, SIRPγ extracellular domain (human, UniProt Q9P1W8 29-360); experiment: SPR Biacore T200, antibody on Protein A chip, 1:1 Langmuir fit
T3 construct: also called hSIRPγ - ECD
T3 sequence (Q9P1W8 29-360 limits assumed): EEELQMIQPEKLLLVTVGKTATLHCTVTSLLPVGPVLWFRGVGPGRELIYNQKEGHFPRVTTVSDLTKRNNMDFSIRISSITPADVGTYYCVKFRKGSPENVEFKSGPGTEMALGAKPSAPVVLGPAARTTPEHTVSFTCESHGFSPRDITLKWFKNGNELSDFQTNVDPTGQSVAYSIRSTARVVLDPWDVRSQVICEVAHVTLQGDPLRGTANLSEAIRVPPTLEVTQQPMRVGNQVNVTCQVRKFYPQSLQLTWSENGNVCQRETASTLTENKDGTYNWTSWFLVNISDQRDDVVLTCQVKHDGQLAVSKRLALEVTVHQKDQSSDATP

[6] = molecular target: T4, SIRPβ extracellular domain (human, UniProt O00241 30-371); experiment: as above
T4 construct: also called hSIRPβ - ECD
T4 chain: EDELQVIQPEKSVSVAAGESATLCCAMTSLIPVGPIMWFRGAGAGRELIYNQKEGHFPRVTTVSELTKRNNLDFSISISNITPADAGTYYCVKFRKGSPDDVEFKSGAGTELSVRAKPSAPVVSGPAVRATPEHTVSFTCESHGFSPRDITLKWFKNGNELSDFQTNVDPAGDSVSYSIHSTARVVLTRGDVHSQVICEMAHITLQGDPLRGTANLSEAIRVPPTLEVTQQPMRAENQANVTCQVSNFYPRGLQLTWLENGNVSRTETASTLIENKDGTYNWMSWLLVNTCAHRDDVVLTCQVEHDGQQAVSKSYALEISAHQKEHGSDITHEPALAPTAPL

mouse SIRPα on cells = molecular target: T5, mouse SIRPα on cells (mouse, UniProt P97797 32-513); experiment: flow cytometry on Mouse SIRPα-CHO-K1 cells
T5 construct: whole, on cells; also called mouse SIRPα-CHO-K1; Ms SIRPα-CHO-K1
T5 sequence (looked up): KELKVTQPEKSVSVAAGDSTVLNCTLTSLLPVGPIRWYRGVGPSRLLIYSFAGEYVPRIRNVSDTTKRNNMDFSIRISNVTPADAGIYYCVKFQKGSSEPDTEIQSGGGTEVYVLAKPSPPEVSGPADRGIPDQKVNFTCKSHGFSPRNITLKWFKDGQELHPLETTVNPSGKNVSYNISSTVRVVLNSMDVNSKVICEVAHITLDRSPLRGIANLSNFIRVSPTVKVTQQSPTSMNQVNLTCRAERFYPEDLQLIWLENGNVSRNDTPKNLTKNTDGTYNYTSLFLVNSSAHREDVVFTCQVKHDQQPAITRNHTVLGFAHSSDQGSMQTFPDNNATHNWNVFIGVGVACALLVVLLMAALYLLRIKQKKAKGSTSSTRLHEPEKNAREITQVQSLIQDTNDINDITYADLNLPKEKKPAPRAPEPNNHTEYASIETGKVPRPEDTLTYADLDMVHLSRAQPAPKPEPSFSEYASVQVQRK

mean EC50 (n=2 donors) of percent phagocytic macrophages; OCI-LY3; with 0.1 nM rituximab (human SIRPα on cells [1]): 0.11 nM | EC50 of percent phagocytic macrophages; FaDu; donor 358; 0.2 nM cetuximab (human SIRPα on cells [2]): 0.075 nM | EC50 of percent phagocytic macrophages; FaDu; donor 358; 1 nM cetuximab (human SIRPα on cells [2]): 0.049 nM | EC50 of percent phagocytic macrophages; GP2d; donor 338; 0.2 nM cetuximab (human SIRPα on cells [2]): 0.657 nM | EC50 of percent phagocytic macrophages; GP2d; donor 338; 1 nM cetuximab (human SIRPα on cells [2]): 0.495 nM | EC50 of percent phagocytic macrophages; GP2d; donor 358; 0.2 nM cetuximab (human SIRPα on cells [2]): 16.2 nM | EC50 of percent phagocytic macrophages; GP2d; donor 358; 1 nM cetuximab (human SIRPα on cells [2]): 0.247 nM | EC50 of percent phagocytic macrophages; GP2d; mean; 0.2 nM cetuximab (human SIRPα on cells [2]): 8.43 nM | EC50 of percent phagocytic macrophages; GP2d; mean; 1 nM cetuximab (human SIRPα on cells [2]): 0.371 nM | EC50 of percent phagocytic macrophages; GP5d; donor 338; 0.2 nM cetuximab (human SIRPα on cells [2]): 0.543 nM | EC50 of percent phagocytic macrophages; GP5d; donor 338; 1 nM cetuximab (human SIRPα on cells [2]): 0.714 nM | EC50 of percent phagocytic macrophages; GP5d; donor 358; 0.2 nM cetuximab (human SIRPα on cells [2]): 0.886 nM | EC50 of percent phagocytic macrophages; GP5d; donor 358; 1 nM cetuximab (human SIRPα on cells [2]): 0.162 nM | EC50 of percent phagocytic macrophages; GP5d; mean; 0.2 nM cetuximab (human SIRPα on cells [2]): 0.715 nM | EC50 of percent phagocytic macrophages; GP5d; mean; 1 nM cetuximab (human SIRPα on cells [2]): 0.438 nM | EC50 of percent phagocytic macrophages; SW480; donor 338; 0.2 nM cetuximab (human SIRPα on cells [2]): 0.2 nM | EC50 of percent phagocytic macrophages; SW480; donor 338; 1 nM cetuximab (human SIRPα on cells [2]): 0.461 nM | EC50 of percent phagocytic macrophages; SW480; donor 358; 0.2 nM cetuximab (human SIRPα on cells [2]): 2.06 nM | EC50 of percent phagocytic macrophages; SW480; donor 358; 1 nM cetuximab (human SIRPα on cells [2]): 0.102 nM | EC50 of percent phagocytic macrophages; SW480; mean; 0.2 nM cetuximab (human SIRPα on cells [2]): 1.13 nM | EC50 of percent phagocytic macrophages; SW480; mean; 1 nM cetuximab (human SIRPα on cells [2]): 0.282 nM | binding result [3]: no binding (tested: 100 nM (Log nM 2)) | EC50 (human SIRPα on cells [4]): 2.06 nM | Kd [5]: 0.0632 nM | Kd [6]: 0.38 nM | binding result (mouse SIRPα on cells): no binding (tested: 100 nM (Log nM 2))
B1: SIRPAB-11-K322A (antibody, human IgG1, kappa)
light: DIQMTQSPSSVSASVGDRVTITCRASQGISSWLAWYQQKPGKAPKLLIYAASNLQSGVPSRFSGSGSGTDFTLTISSLQPEDFATYYCQQGASFPITFGGGTKVEIKRTVAAPSVFIFPPSDEQLKSGTASVVCLLNNFYPREAKVQWKVDNALQSGNSQESVTEQDSKDSTYSLSSTLTLSKADYEKHKVYACEVTHQGLSSPVTKSFNRGEC
heavy: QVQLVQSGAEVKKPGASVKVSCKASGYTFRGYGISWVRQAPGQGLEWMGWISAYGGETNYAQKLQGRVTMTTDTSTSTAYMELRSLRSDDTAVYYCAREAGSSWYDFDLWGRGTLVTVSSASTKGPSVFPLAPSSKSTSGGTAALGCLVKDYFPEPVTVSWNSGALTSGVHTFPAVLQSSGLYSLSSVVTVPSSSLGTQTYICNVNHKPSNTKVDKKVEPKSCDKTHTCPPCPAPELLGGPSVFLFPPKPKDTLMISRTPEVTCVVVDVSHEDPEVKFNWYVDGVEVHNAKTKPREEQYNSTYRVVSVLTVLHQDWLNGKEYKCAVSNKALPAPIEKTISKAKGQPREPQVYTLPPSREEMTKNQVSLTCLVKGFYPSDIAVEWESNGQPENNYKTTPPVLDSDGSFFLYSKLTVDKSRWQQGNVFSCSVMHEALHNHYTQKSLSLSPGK
notes: human IgG1 with K322A (EU numbering); also called SIRPAB-11-IgG1-K322A; SIRPAB-11-K322A-AlexaFluor647
